{
  "source": "paper PMC6630525",
  "key": {"[1]": {"molecular_target": "full-length Arabidopsis thaliana NAP1-Related Protein 2 (AtNRP2-His) (Arabidopsis thaliana) (UniProt Q8LC68)", "sequence (Q8LC68 other isoform, or with tags, fused parts or gaps)": "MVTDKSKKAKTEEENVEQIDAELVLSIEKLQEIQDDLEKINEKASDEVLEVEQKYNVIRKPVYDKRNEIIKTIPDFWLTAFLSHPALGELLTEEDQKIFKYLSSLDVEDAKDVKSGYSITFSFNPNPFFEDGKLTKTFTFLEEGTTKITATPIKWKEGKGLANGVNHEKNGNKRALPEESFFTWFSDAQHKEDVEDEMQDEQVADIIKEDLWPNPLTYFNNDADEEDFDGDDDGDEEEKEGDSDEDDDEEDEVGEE", "assay": "native gel or EMSA; native polyacrylamide gel; increasing amounts of H2A-H2B dimer titrated into a constant amount (5 µM) of AtNRP1/2 proteins"}, "[2]": {"molecular_target": "full-length Arabidopsis thaliana NAP1-Related Protein 1 (AtNRP1-His) (Arabidopsis thaliana) (UniProt Q9CA59)", "sequence (Q9CA59 whole entry)": "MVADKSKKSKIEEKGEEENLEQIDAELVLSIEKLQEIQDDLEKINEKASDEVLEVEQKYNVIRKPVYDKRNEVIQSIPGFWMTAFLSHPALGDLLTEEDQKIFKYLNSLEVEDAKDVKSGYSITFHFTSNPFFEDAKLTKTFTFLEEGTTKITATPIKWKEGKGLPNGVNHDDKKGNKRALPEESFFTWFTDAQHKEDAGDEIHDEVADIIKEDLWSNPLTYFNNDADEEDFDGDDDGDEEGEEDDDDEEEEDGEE", "assay": "native gel or EMSA; native polyacrylamide gel; increasing amounts of H2A-H2B dimer titrated into a constant amount (5 µM) of AtNRP1/2 proteins"}, "[3]": {"molecular_target": "full-length Arabidopsis thaliana NAP1-Related Protein 2 (AtNRP2-His) (Arabidopsis thaliana) (UniProt Q8LC68)", "assay": "ITC; H2A-H2B (200-210 µM) in the syringe, AtNRP1/AtNRP2 (20 µM) in the cell; 25 °C; 20 mM PIPES pH 7.4, 300 mM NaCl; sequential binding site model"}, "[4]": {"molecular_target": "full-length Arabidopsis thaliana NAP1-Related Protein 1 (AtNRP1-His) (Arabidopsis thaliana) (UniProt Q9CA59)", "assay": "ITC; H2A-H2B (200-210 µM) in the syringe, AtNRP1/AtNRP2 (20 µM) in the cell; 25 °C; 20 mM PIPES pH 7.4, 300 mM NaCl; sequential binding site model"}},
  "data": [
    {"substance": "Arabidopsis thaliana histone H2A-H2B dimer (from UniProt Q9LD28 1-130; Q9LQQ4 1-148) (complex)", "values": [
      {"measurement": "stoichiometry N (H2A-H2B dimers per NRP dimer)", "setting": "[1]", "value": 2},
      {"measurement": "stoichiometry N (H2A-H2B dimers per NRP dimer)", "setting": "[2]", "value": 2},
      {"measurement": "Kd1 (sequential binding model, first site)", "setting": "[3]", "value": 39.6, "unit": "nM"},
      {"measurement": "Kd2 (sequential binding model, second site)", "setting": "[3]", "value": 1, "unit": "µM"},
      {"measurement": "dH1 (sequential binding model, first site)", "setting": "[3]", "value": 30.5, "unit": "kJ/mol"},
      {"measurement": "dH2 (sequential binding model, second site)", "setting": "[3]", "value": 5.56, "unit": "kJ/mol"},
      {"measurement": "Kd1 (sequential binding model, first site)", "setting": "[4]", "value": 130, "unit": "nM"},
      {"measurement": "Kd2 (sequential binding model, second site)", "setting": "[4]", "value": 2.4, "unit": "µM"},
      {"measurement": "dH1 (sequential binding model, first site)", "setting": "[4]", "value": 35.6, "unit": "kJ/mol"},
      {"measurement": "dH2 (sequential binding model, second site)", "setting": "[4]", "value": 25.1, "unit": "kJ/mol"}
    ]}
  ]
}
